Assay results taken from patent publication US20110059095A1 (Regeneron, published 2011).

Legend:
[1] = target: T1, Peptide F (monkey PAR-2), N-terminal biotinylated (Monkey (Macaca mulatta), N-terminal biotin via G4S linker); assay: SPR, antibody captured
T1 construct: also called Peptide F N-Term

[2] = target: full length human PAR-2 (human, UniProt P55085 26-397); assay: cell-based or functional assay
[3] = target: monkey PAR-2 (monkey); assay: cell-based or functional assay
[4] = target: rat PAR-2 (rat, UniProt Q63645 37-397); assay: cell-based or functional assay
[5] = target: T2, Peptide B (human PAR-2), unbiotinylated (Human); assay: SPR, antibody captured
T2 construct: also called Peptide B No Biotin
T2 peptide: SLIGKVDGTSHVTG

full length human PAR-2, sequence (P55085 26-397 G138A limits assumed): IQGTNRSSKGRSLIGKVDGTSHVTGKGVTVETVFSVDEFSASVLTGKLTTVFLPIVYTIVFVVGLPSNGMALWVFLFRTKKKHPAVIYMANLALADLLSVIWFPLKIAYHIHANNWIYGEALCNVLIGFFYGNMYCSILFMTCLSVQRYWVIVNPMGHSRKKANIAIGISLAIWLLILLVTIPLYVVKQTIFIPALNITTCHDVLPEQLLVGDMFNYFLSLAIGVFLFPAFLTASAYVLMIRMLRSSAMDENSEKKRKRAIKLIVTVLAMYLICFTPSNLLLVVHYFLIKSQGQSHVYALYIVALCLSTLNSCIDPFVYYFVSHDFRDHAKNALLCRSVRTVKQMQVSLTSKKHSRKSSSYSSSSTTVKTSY
T1 sequence (peptide, as listed by the source): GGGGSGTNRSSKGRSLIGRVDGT
rat PAR-2, sequence (Q63645 37-397): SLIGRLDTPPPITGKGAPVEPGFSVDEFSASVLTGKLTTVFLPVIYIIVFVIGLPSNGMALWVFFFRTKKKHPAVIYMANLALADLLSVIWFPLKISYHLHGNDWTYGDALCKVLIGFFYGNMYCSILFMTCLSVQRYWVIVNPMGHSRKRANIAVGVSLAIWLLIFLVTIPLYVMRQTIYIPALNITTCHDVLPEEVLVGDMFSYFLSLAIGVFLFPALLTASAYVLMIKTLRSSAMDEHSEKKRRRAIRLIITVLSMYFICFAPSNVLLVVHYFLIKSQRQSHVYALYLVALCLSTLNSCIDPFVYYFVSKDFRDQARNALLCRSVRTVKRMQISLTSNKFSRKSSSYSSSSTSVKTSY

B1: H4H588N (antibody, human IgG4, V domains shown)
VH: EVQLLESGGGLVQPGGSLRLSCAASGFTFSSYAMTWVRQAPGKGLYWVSAISGGRGSAYYADSVKGRFTISRDNSKNTLYLQMNSLRAEDTAVYYCAKEGDSGYDLAYWGRGTLVTVSS
VL: DIQMTQSPSSLSASVGDRVTITCRARQGISNNLAWLQQKPGKAPKSLIYAASSLQSGIPSKFSGSGSGTYFTLTISSLQPEDFATYYCQQYKSSPLTFGGGTKVEIK
notes: also called H2M588N variable regions
Kd [1]: 7.1 nM | T1/2 [1]: 24 min

B2: H4H581P (antibody, human IgG4, V domains shown)
VH: QVQLVESGGGVVQPGRSLRLSCVASGFTFSRYGIHWVRQAPGKGLEWVIVISYDGINKYYADSVKGRFTISRDNSKNTVYLQMNSLRAEDTAVYYCAKGDFWSGYFDYWGQGTLVTVSS
VL: DIVMTQTPLSSPVTLGQPASISCRSSQSLVHSDGNTYLSWLHQRPGQPPRLLIYKISNRFSGVPDRFSGSGAGTDFTLQISRVEAEDVGIYYCMQATQFPTFGGGTKVEIK
notes: also called mAb H4H581P; H1H581P variable regions
H4H581P IC50, NF-kB-luciferase, Bovine Factor Xa [2]: 2.5 nM | H4H581P IC50, NF-kB-luciferase, Human Factor Xa [2]: 1.1 nM | H4H581P IC50, NF-kB-luciferase, Human Kallikrein 5 [2]: 0.9 nM | H4H581P IC50, NF-kB-luciferase, Human Kallikrein 14 [2]: 1.2 nM | H4H581P IC50, NF-kB-luciferase, Human Pancreatic Trypsin [2]: 1.9 nM | H4H581P IC50, NF-kB-luciferase, Tryptase [2]: 3.5 nM | H4H581P IC50, NF-kB-luciferase, Bovine Factor Xa [3]: 0.9 nM | H4H581P IC50, NF-kB-luciferase, Human Kallikrein 5 [3]: 11 nM | H4H581P IC50, NF-kB-luciferase, Human Kallikrein 14 [3]: 11.6 nM | H4H581P IC50, NF-kB-luciferase, Human Pancreatic Trypsin [3]: 5.4 nM | H4H581P IC50, NF-kB-luciferase, Human Pancreatic Trypsin [4]: 700 nM

B3: H4H583P (antibody, human IgG4, V domains shown)
VH: QVQLVESGGGVVQPGMSLRLSCTASGFTFRRYGMHWVRQAPGKGLEWVAVIWYDGSNKYYADSVKGRFTITRDNSKNTLYLQMNSLRAEDTAIYFCASEITIGDWFDPRGQGTLVTVSS
VL: AIQMTQSPSSLSASVGDRVTITCRASQGIRNDLGWFQQKPGKVPKLLIYAASTLHSGVPSRFSGSGFGTDFTLTISSLQPEDFATYYCLQDFNYPLTFGGGTKVEIK
notes: also called H1H583P variable regions
binding result [5]: no binding (tested: 15.6 to 250 nM peptide)
